Test results reported in the DeepSol protein solubility set.

experiment: soluble on expression in E. coli; label from the status in PepcDB or PDB records

Row | Sequence | soluble on expression in E. coli
1 | MIEQPDSKSAKPLYKQLEAALKEAIARGEYKPGQQIPTENELSVRWQVSRVTVRKALDALTRENLLTRVSGKGTFVSGEKFQRSMTGIMSFSELCQSQGRRPGSRTIKSVFESVDDETKALLNMNDGEKAVVIERIRYADDVAVSLETVHLPPRFAFLLDEDLNNHSLYECLREKYHLWFTHSRKMIELVYASFEVAHYLGVNEGYPLILIKSEMIDNKGELSCVSQQLIVGDKIRFTV | not soluble
2 | MIETTLTGKTPDIGEENIKKLMTMFPEVVTEGKVDFEKLKQLLGEYVDDSNERYNFTWNGKGRALRLSQTPSLGTLRPCKEESKNWDTTQNLYIEGDNLEVLKLLQKSYYGKIKMIYIDPPYNTGKDFVYRDDFHDSLENYKRITGQVDGNGKAISTNTETSGRYHTDWLNMMYPRLRLARNLLSDDGVIFISIDDNEVDNLKKICNEIFGEDNFIANCVRKRRDSQANLSQNISPIHEYVLIYAKRFGNILNKVTPSLDMGSYKNPDNDPRGPYTTMPCTNVGGAVYSIVTPTGKTITDEWRFKKETFEKLLLDNRIVFPRNGEGKPRYKIFLSEKMAEGVLANTWLDKIASNQEGTREIKELFGGLLFNNPKPTGLLKFLLELGSSKDSIILDFFSGSATTAHAVMQLNAEDGGNRRFIMVQLPEPTDENSEAYKAGYMNISEIGKERIRRAGEKIKEEYKDKGNIENLDIGFKVFKLDTSNIRKWQPDYDNLEQSLMDYVDNFVEGRTELDVVYEIMLKYGLDLTYPVDEFTIAGKKVYSIGYGMLMICLDNEITTEVAKGILTKIKELSPESSRVVFKDNGFKTDSNKTNIKEILKSGGIEEFITI | not soluble
3 | MIFKVGDTVVYPHHGAALIEAIETRTIKGEQKEYLVLKVAQGDLTVRVPADNAEYVGVRDVVGQEGLDKVFQVLRAPHTEEPTNWSRRYKANLEKLASGDVNKVAEVVRDLWRREQDRGLSAGEKRMLAKARQILVGELALAEGTDSDKAETILDEVLAAAS | not soluble
4 | MIFPVARYALRWLRRPEDRAFSRAAMEMALRGVRKVLCVAEKNDAAKGIADLLSNGRMRRREGLSKFNKIYEFDYHLYGQNVTMVMTSVSGHLLAHDFQMQFRKWQSCNPLVLFEAEIEKYCPENFVDIKKTLERETRQCQALVIWTDCDREGENIGFEIIHVCKAVKPNLQVLRARFSEITPHAVRTACENLTEPDQRVSDAVDVRQELDLRIGAAFTRFQTLRLQRIFPEVLAEQLISYGSCQFPTLGFVVERFKAIQAFVPEIFHRIKVTHDHKDGIVEFNWKRHRLFNHTACLVLYQLCVEDPMATVVEVRSKPKSKWRPQALDTVELEKLASRKLRINAKETMRIAEKLYTQGYISYPRTETNIFPRDLNLTVLVEQQTPDPRWGAFAQSILERGGPTPRNGNKSDQAHPPIHPTKYTNNLQGDEQRLYEFIVRHFLACCSQDAQGQETTVEIDIAQERFVAHGLMILARNYLDVYPYDHWSDKILPVYEQGSHFQPSTVEMVDGETSPPKLLTEADLIALMEKHGIGTDATHAEHIETIKARMYVGLTPDKRFLPGHLGMGLVEGYDSMGYEMSKPDLRAELEADLKLICDGKKDKFVVLRQQVQKYKQVFIEAVAKAKKLDEALAQYFGNGTELAQQEDIYPAMPEPIRKCPQCNKDMVLKTKKNGGFYLSCMGFPECRSAVWLPDSVLEASRDSSVCPVCQPHPVYRLKLKFKRGSLPPTMPLEFVCCIGGCDDTLREILDLRFSGGPPRASQPSGRLQANQSLNRMDNSQHPQPADSRQTGSSKALAQTLPPPTAAGESNSVTCNCGQEAVLLTVRKEGPNRGRQFFKCNGGSCNFFLWADSPNPGAGGPPALAYRPLGASLGCPPGPGIHLGGFGNPGDGSGSGTSCLCSQPSVTRTVQKDGPNKGRQFHTCAKPREQQCGFFQWVDENTAPGTSGAPSWTGDRGRTLESEARSKRPRASSSDMGSTAKKPRKCSLCHQPGHTRPFCPQNR | soluble
5 | MIFVLDVGNTNTVLGVYDGDELKHHWRIETSRSKTEDEYGMMIKALLNHVGLQFSDIRGIIISSVVPPIMFALERMCLKYFHIKPLIVGPGIKTGLDIKYDNPREVGADRIVNAVAGIHLYGSPLIIVDFGTATTYCYINEHKQYMGGAIAPGIMISTEALFARAAKLPRIEIARPDDIIGKNTVSAMQAGILYGYVGQVEGIVSRMKAKSKIPPKVIATGGLAPLIASESDIIDVVDPFLTLTGLKLLYEKNTEKKG | soluble
6 | MIGKCTHVVDCRETMGMGEGGGIAQRGTFAQCGSEVLAVAMSPGRRHITKPVCEITFALREANIMTSTIVLNAGAGVPQDAPSAGAGSLFGLTPAEVEQMKRHKLLVVHLGGVKNHITYKARLILRNVDRPCIIICEYPVDFEDFAKIGVRTRAVMPDEPKTKGTIVDIVSGVIRGETCPQEKLDEIIRKVKLALGGALEHHHHHH | not soluble
7 | MIGLFNDCFPPIMDGVSLTTQNYAYWLHRKAGNVCVVTPKSPDARDAEEYPVYRYSSVPIPMRKPYRLGFPRIDWPFHERISRLSFELVHAHCPFSSGALAMQIAREQHVPIVATFHSKYRADFERAIPSRLLVNYLIRKVIRFYEAADEVWIPQAAVEETLREYGYKGRIEVVDNGNDFAGTPFLQSVRQEARRTLGIRSGEFMFLFVGQHIWEKNLGFLLDSLVRLSDIPFRMYFVGSGYASHELKQKVVELGLASKVSFVGSIVEREILKRYYVAADLFLFPSLYDNAPLVIREAAALGTPSVLIRDSTASEIISDSVNGFLSPNSTEAYSNRIREILCSTAIIKQVGEEASRTIARSWEDVAGEVYDRYNRLIKRNGNKLEHHHHHH | soluble
8 | MIGVVIPAHNEEQLLADCLRCALKAASHPELNEDVAILVVLDSCSDGSLDIARQFAVQHLQLQVRNVGRARAAGAQLLLQAGARWLSCTDADSRVPEDWLVAQLALGADAVCGTVTVDRWSESFEPQARIRYHDAYQDSDGHRHIHGANLGISAAAYVRAGGFEALACHEDVQLVRQLQRCGASIAWSRHPQVITSGRLDSRAKGGFGDYLKGLNEPCAGLLEHHHHHH | not soluble
9 | MIHTLAKCEWIKKSLPLCLIGDSGTGKSHLLIALGTEAAMAGYRVKYVLATKLVNELVEAADEKQLTKTIARYGRVDLLCIDELGYMELDRRGAELLFQVLTEREEKNSVAIASNESFSGWTKTFTDPRLCAAIVDRLTFGGNIIETGTDSYRLATTRARAEQQAVVLEHHHHHH | not soluble
10 | MIIGVLAIQGDVEEHEEAIKKAGYEAKKVKRVEDLEGIDALIIPGGESTAIGKLMKKYGLLEKIKNSNLPILGTCAGMVLLSKGTGINQILLELMDITVKRNAYGRQVDSFEKEIEFKDLGKVYGVFIRAPVVDKILSDDVEVIARDGDKIVGVKQGKYMALSFHPELSEDGYKVYKYFVENCVKK | soluble
11 | MIIKSISLMHDRGNGLGGGFAAYGIYPDFKEFFAFHLMYENGMALQLTEEYLERHFFVEHYEEIPTRRTPAIVHPPLFKRYFVKPLETPEYREAIDYQNMTDEDVVVRHVMAINNEIEGAFVVSSGKNMGAFKGVGYPEEIADFFRLEEYTGYIWTAHNRFPTNTPGWWGGAHPFTLLDWSIVHNGEISSYGINKRYLEMYGYVCTMLTDTEVVAYTLDLLIRKHGLTPELASLAMAAPFWDMIDGLPDDERQLLTAIRQVYGSALLNGPFAILFASNEGLIGLNDRVKLRPLVCATKDDFVYMASEEAAIREICPAPDKVWSPRGGEPVIVKMQPGVI | not soluble
12 | MIITGSFGNGHLQVTQSVVNQFKEMNLDNLTVIEHDLFLEAHPILTSICKKWYINSFKYFRNMYKAFYYSQPDQLDKCFYKYYGLNKLMNLLLKEKPDLILLTFPTPVMSVLTEQFDMNIPIATVMTDYRMQKNWITPFSQRYYLATEELKDEFASIGIPKDKLKVTGIPISDKFELEHHHHHH | soluble
13 | MIIYRDLISHDVMFSDIYKIREIADGLCLEVEGKMVSRTEGNIDDSLIGGNASAEGPEGEGTESTVITGVDIVMNHHLQETSFTKEAYKKYIKDYMKSIKGKLEEQRPERVKPFMTGAAEQIKHILANFKNYQFFIGENMNPDGMVALLDYREDGVTPYMIFFKDGLEMEKCLEHHHHHH | soluble
14 | MIKFSATLLATLIAASVNAATVDLRIMETTDLHSNMMDFDYYKDAATEKFGLVRTASLIEQARAEVKNSVLVDNGDVIQGSPLGDYMAAKGLKEGDVHPVYKAMNTLNYAVGNLGNHEFNYGLDFLHKALAGAKFPYVNANIIDAKTGKPMFTPYLIQDTRVVDSDGQIHTLRIGYIGFVPPQIMTWDKANLNGKVTVNDITETARKYIPEMRAKGADVVVVVAHSGLSADPYQAMAENSVYYLSQVPGVDAIMFGHAHAVFPGKDFANIKGADIAKGTLNGVPAVMPGMWGDHLGVVDLVLNNDSGKWQVTQSKAEARPIYDAVAKKSLAAEDGKLVSVLKADHDATREFVSK | not soluble
15 | MIKKGYHVAVVGATGAVGQKIIELLENEMKFNVVEVTLLSSKRSAGKKVRFKGREIIIQEAKTTSFEGVDIAFFSAGGEVSRQFVTHAVSSGAIVIDNTSEYRMAQGVPLVVPEVNAHTLKQHKGIIAVPNCSALQMVTALQPIRKSFGLERIIVSTYQAVSGSGIHAIHELREQAKSILAGEEVKSDILPVKKDKKHYPIAFNVLPQVDIFTDNDFTFEEVKMIQETKKILEDENLKMAATCVRVPVVSGHSESVYIELEKEASVAEIKGILMDAPGVILQDNPSEQLYPMPLYAEGKIDTFVGRIRKDPDTPNGFHLWIVSDNLLKGAAWNSVQIAETLVEKGIL | not soluble
16 | MIKLENELLLVEMKEAGAELTRIFHKDTKLEYLWNADSTFWGRHSPVLFPTVGRLVEDTYFVDGNPYHLGQHGFARDRDFKVVEHTENAVRFELDADEDSLTIYPYKFKLSIIYTIEKDSVAVSYEVENTDNKRIYFSIGAHPAFNLPLADGTTFEDYYLDFGTEENLETLCLEGPYRSGKIEKVVNEPARYLPLSYDLFKNDALIFEGLKQKEITIKSDKTPHFVKVSFPEFPFVGVWTAKAGTPFLCIEPWYGIADGAGKSVELRDKAGIEHLEPEAVFASEYKITIGLEHHHHHH | not soluble
17 | MIKMIDQYQAFTQSPIGKFVVKNLGLPSPVVLDRFESGQPVIKGAVLMGAAPSSSLTSGIAQVLSNIHADSYAGNNAEIQQAAAQVGLNLRAFNSGDKESKFKAVVFDASGIQNSEQLDELYKFFNPIVRQIESSGRVIVLGTSPESAKTVKQAIAQRALEGFIKSVGKEFKKGITAQVVYVDEGAVNNIESTLRFLLSPRSAYVSGQVIRVSKAEVVQVDWDKPLAGKTALVTGASRGIGEAIAHVLARDGAHVICLDVPQQQVDLDRVASEIGGSALGLDITAADAGEKIKAAAAKQGGLDIIVHNAGITRDKTLANMKSELWDLVININLSAAERINDYLLANDGLNTNGRIVCVSSISGIAGNLGQTNYAVSKAGVIGLVKFTAPILKNGITINAVAPGFIETQMTAAIPFAIREAGRRMNSMNQGGLPVDVAETISWFAATGSTGINGNVVRVCGQSLLGALEHHHHHH | soluble
18 | MIKNRQEILFLYDVTDANPNGDPLDENKPRIDEETGINIVTDVRLKRTIRDYLYDYKGFDGSNGKDIFVREIESEKGGIKDGKARAKDFNENVDEILQKAIDIRLFGGVIPLDKASITFTGPVQFNMGRSLNKVNLKHIKGTGAFASGEGKAQKTFREEYIVPYSIIAFHGIINENAAKRTGLTDEDVDLLDDAMWNGTKNLITRSKMGHMPRLMLRVVYKPGENFFIGDLQNRISLNFDVEEEKIRSIKDFSIKLDELIDELANYGDKIEKVVFVADKNLRLSYKGREINLKDIKDIRFEEKTF | soluble
19 | MIKWGFIGCGEVTKTKSGPAFQKVEHSEVVAVMSRDGAKAKAYAKERGIRKWYDDAQELIDDPEVNAIYIATPPSSHATYAIMAMKAGKPAYIEKPMAVTYEECTRINRISKETGVPCFVAYYRRYLPYFQKVKEMVENGSIGNVINVQVRFAQPPRDLDYNRENLPWRVQADIAGGGYFYDLAPHQIDLLQDMFGCILEASGYKSNRGGLYPAEDTLSACFQFDNGLVGSGSWCFVAHDSAREDRIEIIGDKGMICFSVFTYEPIGLHTERGREEICIGNPEHVQQPLIQAVVDHLLGKSVCSCDGESATLTNWVMDKILGKL | not soluble
